Publication PMC8009664

Target: calmodulin (CaM), recombinant bovine 1-149 (UniProt P62157)
Test: ITC, peptide titrated into CaM
Settings: reference: unphosphorylated H1H2; sites S648

With “NHE1 (Na+/H+ exchanger 1, hNHE1) H1H2, 622-692 (from UniProt P19634) Akt-phosphorylated H1H2 (pS648)” the KD was “weaker; reference Kd,1 0.27 ± 0.07; Kd,2 560 ± 10”.
